# Reference: paper PMC5443842, “The Effect of Two Amino acid Residue Substitutions via RNA Editing on Dark-operative Protochlorophyllide Oxidoreductase in the Black Pine Chloroplasts” (Scientific Reports, 2017)
# Target: T1, Strep-ChlN from Leptolyngbya boryana, expressed in E. coli (Leptolyngbya boryana, UniProt Q04607 1-467)
# T1 construct: ChlN, subunit of DPOR (NB protein), Leptolyngbya boryana; Co-expressed with each ChlB variant; To my knowledge pASK-IBA5plus adds an N-terminal Strep-tag II; source: E. coli (chlN-chlB fragments in pASK-IBA5plus), in soluble fraction
# Experiment: pull-down; ChlB variants co-expressed with Strep-ChlN in E. coli; soluble fractions on a Strep-Tactin column in an anaerobic chamber; affinity-purified proteins on SDS-PAGE stained with Coomassie Brilliant Blue, yields quantitated
# Settings: partners not purified
# T1 sequence (Q04607 whole entry, the tested form may be a part): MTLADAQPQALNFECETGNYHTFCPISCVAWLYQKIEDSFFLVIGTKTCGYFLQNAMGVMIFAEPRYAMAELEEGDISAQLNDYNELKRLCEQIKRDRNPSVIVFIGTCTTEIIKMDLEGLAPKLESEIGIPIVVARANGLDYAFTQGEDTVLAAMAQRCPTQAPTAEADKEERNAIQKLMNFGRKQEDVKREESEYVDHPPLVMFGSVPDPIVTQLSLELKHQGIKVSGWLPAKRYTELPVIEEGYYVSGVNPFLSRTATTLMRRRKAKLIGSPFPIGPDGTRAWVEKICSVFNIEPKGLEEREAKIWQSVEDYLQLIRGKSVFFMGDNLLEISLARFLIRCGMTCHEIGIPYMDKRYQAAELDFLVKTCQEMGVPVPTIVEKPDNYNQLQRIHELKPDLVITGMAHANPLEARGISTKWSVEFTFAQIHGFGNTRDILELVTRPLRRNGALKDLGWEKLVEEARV
binder,measurement,value
"wild-type ChlB from Leptolyngbya boryana, expressed in E. coli (natural protein, UniProt P95463 1-508, looked up, ChlB, subunit of DPOR (NB protein), Leptolyngbya boryana; also called WT ChlB; WT control; source: E. coli (pHANB2), in soluble fraction) MKLAYWMYAGPAHIGTLRIASSFKNVHAIMHAPLGDDYFNVMRSMLERERDYTPVTTSVVDRHVLARGSQEKVVDNITRKDAEEHPDLIVLTPTCTSSILQEDLQNFVERAQLEAKGDVMLADVNHYRVNELQAADRTLQQIVQFYIAKARKQGNLVTEKTEKPSVNIFGMTTLGFHNNHDATELKKLMSDLGIEVNAIVPAGASVHELKSLPRAWFNLVPYRETGLLAAEFLQQEFNMPYVDITPIGIVETARCIRKIQQVINAQGANVDYEPFIDQQTRFVSQAAWFSRSIDCQNLTGKKAVVFGDNTHAAALTKILAREMGIHVLLAGTYCKYDEAWFREQVSEYCDDVLVSDDNGQIADAIARLEPAAIFGTQMERHVGKRLDIPCGVIAAPIHIQNFPVGYKPFVGYEGSNQIVDLIYNSFTLGMEDHLLEIFGGHDTKEVITKSVSADSDLNWSKDGLAELNRIPGFVRGKVKRNTEKFARDRNITQITAEVLYAAKEAVGA",stoichiometry N,~1
